Experimental data as given in US20240074473A1, “METHOD FOR INDUCING HYPERTROPHIC MUSCLE FIBERS FOR INDUSTRIAL MEAT PRODUCTION” (Yeda Research and Development Co. Ltd., priority 2021, published 2024).

Tests used:
[1] = Risk categorization of cell culture media ingredients
From the text: Category 1: These cell culture media components are food ingredients/additives that are GRAS or permitted by federal regulation without limitation on use. Exemplary compounds in this category include innocuous ingredients such as sugars, pH buffers, water soluble vitamins, and common antioxidants such as tocopherols.
Category 2: These cell culture media components are common dietary nutrients and are anticipated to have GRAS status for food use or be permitted by regulation for addition to food. Examples of such compounds include most of the inorganic salts and macronutrients that are present within the cell culture media. […] Majority of nutrients present within the poultry cell-based meat may be readily measured using common validated methods for food composition testing. […]
For example, situations where the compound is not detectable in finished product or is present at equivalent levels in comparator foods, compounds that are thermo-labile and will be digested during cooking, and/or compounds that are expected to be digested to innocuous compounds following ingestion. […] For Category 3 substances a final consideration in the safety assessment process may involve hazard characterization of the potential for a substance to produce toxic biological effects outside of the endpoints measured in a sub-chronic rat toxicity study. […]

[2] = Maximum estimated dietary exposure to media ingredients per 100 g serving; conditions: assumption of complete transfer of media components to the finished product on a wt/wt basis

B1: Bovine Transferrin: iron carrier of cell culture media (protein, UniProt Q29443 20-704, looked up)
Serotransferrin: DPERTVRWCTISTHEANKCASFRENVLRILESGPFVSCVKKTSHMDCIKAISNNEADAVTLDGGLVYEAGLKPNNLKPVVAEFHGTKDNPQTHYYAVAVVKKDTDFKLNELRGKKSCHTGLGRSAGWNIPMAKLYKELPDPQESIQRAAANFFSASCVPCADQSSFPKLCQLCAGKGTDKCACSNHEPYFGYSGAFKCLMEGAGDVAFVKHSTVFDNLPNPEDRKNYELLCGDNTRKSVDDYQECYLAMVPSHAVVARTVGGKEDVIWELLNHAQEHFGKDKPDNFQLFQSPHGKDLLFKDSADGFLKIPSKMDFELYLGYEYVTALQNLRESKPPDSSKDECMVKWCAIGHQERTKCDRWSGFSGGAIECETAENTEECIAKIMKGEADAMSLDGGYLYIAGKCGLVPVLAENYKTEGESCKNTPEKGYLAVAVVKTSDANINWNNLKDKKSCHTAVDRTAGWNIPMGLLYSKINNCKFDEFFSAGCAPGSPRNSSLCALCIGSEKGTGKECVPNSNERYYGYTGAFRCLVEKGDVAFVKDQTVIQNTDGNNNEAWAKNLKKENFEVLCKDGTRKPVTDAENCHLARGPNHAVVSRKDKATCVEKILNKQQDDFGKSVTDCTSNFCLFQSNSKDLLFRDDTKCLASIAKKTYDSYLGDDYVRAMTNLRQCSTSKLLEACTFHKP
- Risk Assessment Category [1]: 3
- Maximum Estimated Exposure per 100 g serving [2]: 150 mg
